Inhibition of binding (%) data for nine molecules are collected here from patent US20170129940A1.

Common to all, as to conditions: remark: other sources report otherwise
For test [1], the target named is T1, hCMV gH + gL + UL128 + UL130 + UL131A (co-expressed in HEK293T cells) (human cytomegalovirus), P12824. Nature of the test: competitor: 2F4-biotin; cell staining.
In test [2] the target is T1, hCMV gH + gL + UL128 + UL130 + UL131A …. Nature of the test: competitor: 5A2-biotin; cell staining.
The target is the same in test [3]. Nature of the test: competitor: 6G4-biotin; cell staining.
For test [4] the target is unchanged. Nature of the test: competitor: 15D8-biotin; cell staining.
Test [5] has the same target. Nature of the test: competitor: 1F11-biotin; cell staining.
For test [6] the target is unchanged. The experiment in a line: competitor: 4I22-biotin; cell staining.
The target is the same in test [7]. The experiment in a line: competitor: 4N10-biotin; cell staining.
Test [8] shares this target. Nature of the test: competitor: 2C12-biotin; cell staining.
For test [9] the target is unchanged. Nature of the test: competitor: 8I21-biotin; cell staining.
For test [10] the target is unchanged. The experiment in a line: competitor: 10F7-biotin; cell staining.
Test [11] shares this target. Nature of the test: competitor: 8J16-biotin; cell staining.
Test [12] shares this target. The experiment in a line: competitor: 9I6-biotin; cell staining.
The target is the same in test [13]. Nature of the test: competitor: 8C15-biotin; cell staining.

B1: 8I21 (antibody, V domains shown)
VH: LVELVESGGGVVQPGRSLRLSCAASGFTFSSDGMHWVRQSPGRGLEWVAFISSDGSTPYYADSVKGRFTISRDNSKNTLYLQMNSLRAEDTAMYFCAKDWALFRWLRTFDHWGQGTLVTVSS
VL: not shown
With B1, the Inhibition of binding (%) is 0% in test [1]; 95% in test [2]; 0% in test [3]; 0% in [4]; 0% in [5]; 0% in [6]. Besides, the values for the Inhibition of binding (%) in [7], in test [8] and in test [9] were 90%, 0% and 100%, respectively.

B2: 10F7 (antibody, V domains shown)
VH: EVQLVESGGGLVQPGRSLRLSCTASGFTFGDYAMSWFRQAPGKGLEWVGFIRSKAYGGTTEYAASVKGRFTISRDDSKSIAYLQMNSLKTEDTAVYYCTRASSLLWLLNPQPNFDYWGQGTLVTVSS
VL: SYVLTQPPSVSVAPGQTARITCGGNNIGSNNVHWYQQKPGQAPVLVVYDDSDRPSGIPERFSGSNSGNTATLTISRVEAGDEADYYCQVWDSSSDHPVFGGGTKLTVL
With B2, the Inhibition of binding (%) was determined as 100% in test [1]; 0% in test [2]; 0% in [3]; 100% in test [10]; 0% in test [4]; 100% in test [5]. The Inhibition of binding (%) in test [6] came out at 100%; in test [7], 0%; in [8] it was 0%; in [9], 0%.

B3: 4I22 (antibody, V domains shown)
VH: QVQLVESGGGVVQPGRSLRLSCVASGFTFSSYAMHWVRQAPGKGLEWVAVISYDGDNKFYADSVKGRFRISRDTSKNTLYLEMNSLRAADTAIYYCAREELVGLMPPYYNYGLDVWGQGTTVTVSS
VL: QSVLTQPPSVSAAPGQKVTISCSGSNSNIGNNYVSWYQQLPGRAPKLLIYDNDHRPSGIPDRFSGSKSGTSATLVITGLQTGDEADYYCETWDTSLSAAVVFGGGTKLTVL
As for B3, the Inhibition of binding (%) was determined as 100% in test [1]; 0% in test [2]; 100% in [10]; 100% in [5]; 100% in [6]; 0% in test [7]. Moreover, the Inhibition of binding (%) in [8], in test [9] and in test [11] was 0% throughout.

B4: 7I13 (antibody, V domains shown)
VH: QVQLVESGGGVVQPGRSLRLSCAASGFTFSNYGMHWVRQGPGKGLEWVAVISYDASSKYYTDSVQGRFTISRDNSKNTLFLQMNSLRGEDTAVYYCAKALRYLDWFLSDPFDYWGQGTLVTVSS
VL: EIVLTQSPGTLSLSPGERATLSCRASQSVSSDFLAWYQQKPGQAPRLLIYGASSRATGIPDRFSGSGSGTDFTLTISRLEPEDFAVYYCQQYAASPPFGQGTRLEIK
In the case of B4, the Inhibition of binding (%) in test [3], in test [12], in test [5], in [8], in test [13] and in test [9] was 0% in each case. In test [11], the Inhibition of binding (%) is 0%.

B5: 15D8 (antibody, V domains shown)
VH: EVQLVQSGAEVKKPGESLKISCQASGYSFTNYWIAWVRQMPGKGLEWMGIIYPGDSDIKYSPSFRGQVTISADKSISNAFLQWRSLRASDTAMYYCARHAIRGDGFDYWGQGTLVTVSS
VL: SYELTQPPSVSVSPGQTATITCSGDKLGEKYACWYQQKPGQSPVLVMYQDTKRPSGIPERFSGSNSGNTATLTISGTRAMDEADYYCQAWDTNTVIFGGGTKLTVL
B5: the Inhibition of binding (%) in [1] was determined as 0%; in test [2], 0%; in test [3], 0%; in [10], 0%; in [4], 100%; in test [5], 0%. Besides, the Inhibition of binding (%) in test [6], in [7], in test [8] and in test [9] was 0% throughout.

B6: 4N10 (antibody, V domains shown)
VH: QVQLVQSGAEVKKPGSSVRVSCKASGGTFSSYVIIWVRQAPGQGLEWMGGVIPIFDTVNYAQKFQGRVTITADESTSTAYMELSSLKSEDTAVYYCARGILAYCGGDCYNTPYGMDVWGQGTTVTVSS
VL: DIQMTQSPSILSASVGDRVTITCRASQSISSWLAWYQQKPGKAPKLLIYKASSLEIGVPSRISGSGSGTEFTLTISSLQPDDFATYYCQQYNSSWTFGQGTKVEIK
B6: the Inhibition of binding (%) in [1] was 0%; in test [2] it was 100%; in [3] it was 0%; in test [10], 0%; in [4] it was 0%; in test [5], 0%. Also, the Inhibition of binding (%) in test [6] was 0%; in [7] it was 100%; in test [8], 0%; in test [9] it was 90%.

B7: 10P3 (antibody, V domains shown)
VH: EVQLVESGGGLVRPGGSLRLSCAASGFTFHNYRMNWVRQAPGKGLEWVANIKQDGSEKSYVDSVRGRFTTSRDNSKNSLYLQINSLRAEDTAVYYCARGEGYTYGVVYSYSAMDVWGQGTTVIVSS
VL: SYELTQPPSVSVSPGQTARITCSGNVLPNQYASWYQQKPGQAPVLVIYKDTERPSGIPGRFSGSSSGTTVTLTISGVQAEDEADYYCQSADSSGADYVFGTGTKVTVL
Take B7: the Inhibition of binding (%) in test [1], in test [3], in test [4], in test [5], in test [6] and in test [8] was 0% each time. The Inhibition of binding (%) in [9] came to 0%.

B8: 8L13 (antibody, V domains shown)
VH: QVQLLESGGGVVQPGRSLRLSCAASGFTFSNYGMHWVRQAPGKGLEWVAVIWNDGSKKYYAESVKGRFTISRDNSKNTVYLQMNSLRAEDTAVYYCARDEGVQMVFAMPDYGMDVWGQGTTVTVSS
VL: SYELTQPPSVSVSPGQTASITCSGDKLGDKFACWYQQRPGQSPILVIYQDSKRPSGIPERFSGSNSGNTATLTIRGTQAMDEADYYCQAWDSSTAHYVFGTGTKVTVL
Turning to B8, the Inhibition of binding (%) in [10] and in [5] was 100% throughout.

B9: 7B13 (antibody, V domains shown)
VH: QVQLVESGGGVVQPGGSLRLSCAASGFSFSNYGMHWVRQAPGKGLEWVALIPSDGNYQYYTDSVKGRFTVSRDNSRNTLYLQMKSLRAEDTARYHCAHLGGGLFDFWGQGTLVTVSS
VL: QSALNQPRSVSGSPGQSVSISCTGSSSDVGGYEFVSWYQHHPGKAPKLIIYDVDKRPSGVPDRFSGSRSGDTASLTISGLQAEDEADYYCYSSADTWVFGGGTKLTVL
In the case of B9, the Inhibition of binding (%) in test [3] worked out at 100%; in test [12], 100%; in [8] it was 100%; in test [13], 100%; in test [9] it was 0%; in [11] it was 100%.
